The values below come from article PMC9239255, “Switching off Bacterial Flagellar Biogenesis by YdiU-Mediated UMPylation of FlhDC”.

The target of this data set is T1, FlhDC (native, un-UMPylated) (Escherichia coli K-12 MG1655, UniProt P0A8S9;P0ABY7 1-116;1-192).
T1 sequence 1: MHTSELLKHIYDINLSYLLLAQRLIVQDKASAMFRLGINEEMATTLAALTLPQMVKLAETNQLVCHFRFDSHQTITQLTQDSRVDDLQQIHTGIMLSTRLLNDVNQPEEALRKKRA
T1 sequence 2: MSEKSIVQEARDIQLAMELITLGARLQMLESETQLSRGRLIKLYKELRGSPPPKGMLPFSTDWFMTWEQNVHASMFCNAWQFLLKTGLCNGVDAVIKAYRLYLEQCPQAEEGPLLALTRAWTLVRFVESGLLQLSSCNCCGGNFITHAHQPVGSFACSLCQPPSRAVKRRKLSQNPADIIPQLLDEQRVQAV
The data set is described as follows: EMSA; 10 nM DNA; shift at protein:DNA ratio greater than 1. The note with it: protein: recombinant; tags: none apparent (pET21b; reverse primer carries stop codon); chain copies: 4;2; label: 5'-FAM on strand 1 (Methods call both oligos FAM-flhB); blunt. (In general: Mobility shift assays separate free from complexed probe on a gel.)

B1: pflhB (flhB promoter) (dsDNA)
DNA 1: ATTAACGCCATAAACCCCGCCTTTTTTACCGCTTACTCTGCCTATTGGCGT
DNA 2: ACGCCAATAGGCAGAGTAAGCGGTAAAAAAGGCGGGGTTTATGGCGTTAAT
On to B1, for which the binding result is recorded as “binds”.
